Reference: PMC11417181

Columns and labels:
C3b C3b (Homo sapiens) = C3b C3b (Homo sapiens) (UniProt P01024); conditions: cited from earlier work
[1] = molecular target: SCR-17/18H deglycosylated with PNGase F (human); assay: AUC; sedimentation velocity of the SCR fragments, 20 °C, 50,000 rpm, Hepes buffer (10 mM Hepes, 137 mM NaCl, pH 7.4), c(s) analysis in SEDFIT, proportions of monomer and dimer from peak integration; monomer to dimer

Sequence of C3b C3b (Homo sapiens) (P01024 566-670): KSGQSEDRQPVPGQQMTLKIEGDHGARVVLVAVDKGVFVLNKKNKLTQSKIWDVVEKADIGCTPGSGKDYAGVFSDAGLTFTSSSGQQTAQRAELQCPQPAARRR
Sequence of Complement factor H (P08603 19-1231): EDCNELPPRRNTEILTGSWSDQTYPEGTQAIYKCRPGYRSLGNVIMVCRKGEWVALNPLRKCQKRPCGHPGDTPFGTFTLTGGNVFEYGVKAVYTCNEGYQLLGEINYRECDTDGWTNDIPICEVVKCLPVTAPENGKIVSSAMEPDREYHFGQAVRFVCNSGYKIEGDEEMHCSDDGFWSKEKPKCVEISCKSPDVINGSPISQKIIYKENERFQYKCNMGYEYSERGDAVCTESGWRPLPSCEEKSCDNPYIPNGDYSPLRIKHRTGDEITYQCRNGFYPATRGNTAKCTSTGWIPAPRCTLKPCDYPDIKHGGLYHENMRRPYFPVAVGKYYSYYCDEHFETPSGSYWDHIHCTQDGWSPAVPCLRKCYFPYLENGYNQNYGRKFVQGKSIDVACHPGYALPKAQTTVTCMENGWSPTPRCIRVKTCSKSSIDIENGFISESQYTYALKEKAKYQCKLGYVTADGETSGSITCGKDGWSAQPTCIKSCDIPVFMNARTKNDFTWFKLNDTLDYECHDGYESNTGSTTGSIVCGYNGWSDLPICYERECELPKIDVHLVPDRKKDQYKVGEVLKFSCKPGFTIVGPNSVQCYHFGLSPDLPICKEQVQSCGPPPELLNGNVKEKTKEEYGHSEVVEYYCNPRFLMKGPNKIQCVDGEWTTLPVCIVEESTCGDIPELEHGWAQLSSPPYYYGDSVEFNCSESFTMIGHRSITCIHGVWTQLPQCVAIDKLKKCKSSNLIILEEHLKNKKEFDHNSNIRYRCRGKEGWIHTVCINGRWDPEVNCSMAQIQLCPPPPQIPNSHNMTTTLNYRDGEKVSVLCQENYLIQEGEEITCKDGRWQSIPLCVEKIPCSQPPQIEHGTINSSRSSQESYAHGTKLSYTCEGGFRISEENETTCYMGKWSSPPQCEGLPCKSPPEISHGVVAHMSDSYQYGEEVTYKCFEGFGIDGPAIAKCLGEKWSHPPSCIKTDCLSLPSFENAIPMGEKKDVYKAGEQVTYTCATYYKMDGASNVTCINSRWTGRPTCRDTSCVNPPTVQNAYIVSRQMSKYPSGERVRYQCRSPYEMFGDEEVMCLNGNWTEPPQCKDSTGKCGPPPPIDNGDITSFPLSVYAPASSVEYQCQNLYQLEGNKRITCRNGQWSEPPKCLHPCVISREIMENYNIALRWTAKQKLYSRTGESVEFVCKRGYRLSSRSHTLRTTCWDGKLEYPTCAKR

proportion of dimer [1] [%] | stoichiometry N [1] | Substance | Kd (C3b C3b (Homo sapiens)) [nM]
– | – | Complement factor H (from UniProt P08603) | 1060
16 | 2 | SCR-17/18H deglycosylated with PNGase F (domain or fragment) | –
